Laboratory results from publication PMC5727935, “The distinctive cell division interactome of Neisseria gonorrhoeae” (BMC Microbiology, 2017).

Assays:
[1] = target: N. gonorrhoeae FtsW, bacterial two-hybrid fusion (Neisseria gonorrhoeae CH811) (UniProt B4RQC6); assay: two-hybrid; bacterial two-hybrid (Di Lallo): fusions to P22 and 434 repressor ends in E. coli R721, 34 °C; residual β-galactosidase activity against R721 without plasmids (2504 ± 34 Miller units); less than 50% counts as a positive interaction
[2] = target: N. gonorrhoeae FtsK, bacterial two-hybrid fusion (Neisseria gonorrhoeae CH811); assay: as above
[3] = target: N. gonorrhoeae FtsN, bacterial two-hybrid fusion (Neisseria gonorrhoeae CH811); assay: as above
[4] = target: N. gonorrhoeae FtsZ, bacterial two-hybrid fusion (Neisseria gonorrhoeae) (UniProt P72079); assay: as above
[5] = target: T1, N. gonorrhoeae FtsQ, bacterial two-hybrid fusion (Neisseria gonorrhoeae CH811, UniProt Q5F6M1 1-242); assay: as above; settings: partners not purified
T1 construct: FtsQ of Neisseria gonorrhoeae CH811, amplified from genomic DNA with primers P5/P6 (start codon to stop codon); Cloned in both vectors (pcIp22 and pcI434); each fusion carries one of the two repressor ends; also called FtsQNg; pcIp22-Q; source: bacterial two-hybrid fusion, expressed in E. coli R721
T1 sequence (looked up): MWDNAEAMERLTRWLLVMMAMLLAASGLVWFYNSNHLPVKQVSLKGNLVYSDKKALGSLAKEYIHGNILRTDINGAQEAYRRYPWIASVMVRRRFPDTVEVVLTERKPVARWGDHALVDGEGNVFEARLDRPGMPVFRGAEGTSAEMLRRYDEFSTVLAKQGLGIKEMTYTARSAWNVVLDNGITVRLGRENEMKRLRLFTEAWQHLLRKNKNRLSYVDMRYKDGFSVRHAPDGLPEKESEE

[6] = target: T2, N. gonorrhoeae FtsW, bacterial two-hybrid fusion (Neisseria gonorrhoeae CH811, UniProt B4RQC6 1-462); assay: as above; settings: partners not purified
T2 construct: FtsW of Neisseria gonorrhoeae CH811, amplified from genomic DNA with primers P9/P10 (start codon to stop codon); Cloned in both vectors (pcIp22 and pcI434); each fusion carries one of the two repressor ends; also called FtsWNg; pcIp22-W; source: bacterial two-hybrid fusion, expressed in E. coli R721
T2 sequence (looked up): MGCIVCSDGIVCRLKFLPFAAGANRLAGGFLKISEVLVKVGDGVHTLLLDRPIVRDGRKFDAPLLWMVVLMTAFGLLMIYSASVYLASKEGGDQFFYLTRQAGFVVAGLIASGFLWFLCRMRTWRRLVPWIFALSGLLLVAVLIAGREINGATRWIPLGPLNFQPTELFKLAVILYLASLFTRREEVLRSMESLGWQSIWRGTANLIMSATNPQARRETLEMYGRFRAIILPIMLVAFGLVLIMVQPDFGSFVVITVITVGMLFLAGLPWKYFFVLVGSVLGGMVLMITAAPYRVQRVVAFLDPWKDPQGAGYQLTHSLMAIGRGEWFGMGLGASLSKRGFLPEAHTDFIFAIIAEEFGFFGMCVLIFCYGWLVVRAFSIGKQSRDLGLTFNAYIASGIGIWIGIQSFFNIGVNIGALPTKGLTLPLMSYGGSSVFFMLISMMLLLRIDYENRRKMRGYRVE

[7] = target: the molecule itself; assay: 90° light scattering + negative-stain electron microscopy; FtsZNg about 6 μM in MES buffer (50 mM MES-NaOH, 50 mM KCl, 10 mM MgCl2, pH 7.5), 2 mM GTP, 30 °C; polymerisation
[8] = target: His-FtsANg (Neisseria gonorrhoeae CH811) (UniProt Q5F6M2); assay: SPR; FtsANg immobilised on the HTE chip; polymerized FtsZNg (with GTP) at 6 and 12 μM injected for 120 s, 300 s dissociation; MES buffer with 0.1% BSA, 0.05% Tween-20, 1 mM ATP, pH 7.5; Langmuir 1:1 kinetic fit
[9] = target: His-FtsNNg (ligand of the SPR) (Neisseria gonorrhoeae); assay: SPR; Bio-Rad XPR36, ProteOn HTE chip activated with NiSO4; His-FtsQNg or His-FtsNNg immobilised at 200 nM; two-fold dilutions of FtsANg in PBST (0.1% BSA, 0.05% Tween-20, pH 7.9), 30 μl/min, 120 s, then 300 s buffer; Langmuir 1:1 kinetic fit
[10] = target: T3, FtsANg (analyte of the SPR with FtsQNg and FtsNNg) (Neisseria gonorrhoeae CH811, UniProt Q5F6M2 1-414); assay: as above; settings: both partners purified
T3 construct: FtsA of Neisseria gonorrhoeae CH811; GST in PBST as the negative-control analyte hints at GST-FtsANg (surmise); source: E. coli C41 (DE3), purified
T3 sequence (looked up): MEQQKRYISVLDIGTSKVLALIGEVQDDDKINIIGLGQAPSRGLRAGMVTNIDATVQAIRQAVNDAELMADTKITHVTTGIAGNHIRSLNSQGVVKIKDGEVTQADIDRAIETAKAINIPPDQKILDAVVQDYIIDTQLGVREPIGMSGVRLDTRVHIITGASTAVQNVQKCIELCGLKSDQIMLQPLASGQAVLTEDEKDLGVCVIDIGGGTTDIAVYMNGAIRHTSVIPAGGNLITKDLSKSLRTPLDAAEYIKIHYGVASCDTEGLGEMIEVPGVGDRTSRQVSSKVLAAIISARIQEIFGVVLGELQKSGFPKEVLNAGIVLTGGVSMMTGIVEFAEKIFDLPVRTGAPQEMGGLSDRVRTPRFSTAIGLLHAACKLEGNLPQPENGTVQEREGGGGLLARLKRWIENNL

In the case of “N. gonorrhoeae FtsI, bacterial two-hybrid fusion (natural protein)”, the residual β-galactosidase activity [1] is reported as 35%.

In the case of “N. gonorrhoeae FtsN, bacterial two-hybrid fusion (natural protein)”, the residual β-galactosidase activity [2] is reported as 31%.

B1: N. gonorrhoeae FtsA, bacterial two-hybrid fusion (natural protein, Neisseria gonorrhoeae CH811, UniProt Q5F6M2 1-414, looked up)
chain: MEQQKRYISVLDIGTSKVLALIGEVQDDDKINIIGLGQAPSRGLRAGMVTNIDATVQAIRQAVNDAELMADTKITHVTTGIAGNHIRSLNSQGVVKIKDGEVTQADIDRAIETAKAINIPPDQKILDAVVQDYIIDTQLGVREPIGMSGVRLDTRVHIITGASTAVQNVQKCIELCGLKSDQIMLQPLASGQAVLTEDEKDLGVCVIDIGGGTTDIAVYMNGAIRHTSVIPAGGNLITKDLSKSLRTPLDAAEYIKIHYGVASCDTEGLGEMIEVPGVGDRTSRQVSSKVLAAIISARIQEIFGVVLGELQKSGFPKEVLNAGIVLTGGVSMMTGIVEFAEKIFDLPVRTGAPQEMGGLSDRVRTPRFSTAIGLLHAACKLEGNLPQPENGTVQEREGGGGLLARLKRWIENNL
notes: FtsA of Neisseria gonorrhoeae CH811, amplified from genomic DNA with primers P1/P2 (start codon to stop codon); ends at Leu414 by the limits of the truncations; Cloned in both vectors (pcIp22 and pcI434); each fusion carries one of the two repressor ends; also called FtsANg; pcIp22-A; source: bacterial two-hybrid fusion, expressed in E. coli R721
For B1, the residual β-galactosidase activity [2] was 30%, the residual β-galactosidase activity [3] was 24% and the residual β-galactosidase activity [4] was 40%. The “residual β-galactosidase activity” value [5] was 48% and the “residual β-galactosidase activity” value [6] was 45%.

B2: FtsZNg, His tag cleaved with thrombin (natural protein, Neisseria gonorrhoeae CH811, UniProt P72079 1-392, looked up)
chain: MEFVYDVAESAVSPAVIKVIGLGGGGCNAINNMVANNVRSVEFISANTDAQSLAKNHAAKRIQLGTNLTRGLGAGANPDIGRAAAQEDREAIEEAIRGANMLFITTGMGGGTGTGSAPVVAEIAKSLGILTVAVVTRPFSYEGKRVHVAQAGLEQLKEHVDSLIIIPNDKLMTALGEDVTMREAFRAADNVLRDAVAGISEVVTCPSEIINLDFADVKTVMSNRGIAMMGSGYAQGIDRARMATDQAISSPLLDDVTLDGARGVLVNITTAPGCLKMSELSEVMKIVNQSAHPDLECKFGAAEDETMSEDAIRITIIATGLKEKGAVDPTPEREVEAVAPSKQEQSHIVEGMIRTNRGIRTMNLTAADFDNQSVLDDFEIPAILRRQHNSDK
notes: FtsZ of Neisseria gonorrhoeae CH811, full-length ftsZ (primers P19/P20) cloned BglII/EcoRI into pET30a; also called polymerized FtsZNg; not shown: His6, N-terminal, cleaved
With B2 the binding result [7] was “binds”, the Kd [8] was 14900 nM and the koff [8] was 0.00531 s⁻¹. For the same molecule, the kon [8] was 356 M⁻¹ s⁻¹.

B3: FtsANg (analyte of the SPR with FtsQNg and FtsNNg) (natural protein)
chain: MEQQKRYISVLDIGTSKVLALIGEVQDDDKINIIGLGQAPSRGLRAGMVTNIDATVQAIRQAVNDAELMADTKITHVTTGIAGNHIRSLNSQGVVKIKDGEVTQADIDRAIETAKAINIPPDQKILDAVVQDYIIDTQLGVREPIGMSGVRLDTRVHIITGASTAVQNVQKCIELCGLKSDQIMLQPLASGQAVLTEDEKDLGVCVIDIGGGTTDIAVYMNGAIRHTSVIPAGGNLITKDLSKSLRTPLDAAEYIKIHYGVASCDTEGLGEMIEVPGVGDRTSRQVSSKVLAAIISARIQEIFGVVLGELQKSGFPKEVLNAGIVLTGGVSMMTGIVEFAEKIFDLPVRTGAPQEMGGLSDRVRTPRFSTAIGLLHAACKLEGNLPQPENGTVQEREGGGGLLARLKRWIENNL
In the case of B3, the Kd [9] is reported as 53.3 nM, the koff [9] is reported as 0.00616 s⁻¹ and the kon [9] is reported as 115000 M⁻¹ s⁻¹.

B4: N. gonorrhoeae FtsZ, bacterial two-hybrid fusion (natural protein, Neisseria gonorrhoeae, UniProt P72079 1-392, looked up)
chain: MEFVYDVAESAVSPAVIKVIGLGGGGCNAINNMVANNVRSVEFISANTDAQSLAKNHAAKRIQLGTNLTRGLGAGANPDIGRAAAQEDREAIEEAIRGANMLFITTGMGGGTGTGSAPVVAEIAKSLGILTVAVVTRPFSYEGKRVHVAQAGLEQLKEHVDSLIIIPNDKLMTALGEDVTMREAFRAADNVLRDAVAGISEVVTCPSEIINLDFADVKTVMSNRGIAMMGSGYAQGIDRARMATDQAISSPLLDDVTLDGARGVLVNITTAPGCLKMSELSEVMKIVNQSAHPDLECKFGAAEDETMSEDAIRITIIATGLKEKGAVDPTPEREVEAVAPSKQEQSHIVEGMIRTNRGIRTMNLTAADFDNQSVLDDFEIPAILRRQHNSDK
notes: FtsZ of Neisseria gonorrhoeae; Cloned in both vectors (pcIp22 and pcI434); each fusion carries one of the two repressor ends; also called FtsZNg; pcIp22-Z; source: bacterial two-hybrid fusion, expressed in E. coli R721
B4 was tested, and the residual β-galactosidase activity [2] was 41% and the “residual β-galactosidase activity” value [6] was 39%.

B5: His-FtsQNg (natural protein, Neisseria gonorrhoeae CH811, UniProt Q5F6M1 1-242, looked up)
chain: MWDNAEAMERLTRWLLVMMAMLLAASGLVWFYNSNHLPVKQVSLKGNLVYSDKKALGSLAKEYIHGNILRTDINGAQEAYRRYPWIASVMVRRRFPDTVEVVLTERKPVARWGDHALVDGEGNVFEARLDRPGMPVFRGAEGTSAEMLRRYDEFSTVLAKQGLGIKEMTYTARSAWNVVLDNGITVRLGRENEMKRLRLFTEAWQHLLRKNKNRLSYVDMRYKDGFSVRHAPDGLPEKESEE
notes: FtsQ of Neisseria gonorrhoeae CH811, full-length ftsQ (primers P17/P18) cloned BglII/EcoRI into pET30a; also called pETQ
Molecule B5 has a Kd [10] of 15.1 nM, a koff [10] of 0.00409 s⁻¹ and a kon [10] of 272000 M⁻¹ s⁻¹.
